Experimental data as given in publication PMC2975675.

Assays:
[1] = biological target: GST-Rabin8-F201A (human); assay: pull-down
[2] = biological target: GST-Rabin8-L196A (human); assay: pull-down

Rab8a (in vitro translated Rab8A-T22N or Rab8A-Q67L) (from UniProt P61006 1-207) (natural protein)
percent decrease of association against wild-type GST-Rabin8 [1]: 52% | percent decrease of association against wild-type GST-Rabin8 [2]: 39%
